For assay [1], the target named is Kelch domain of human Keap1 (residues 321-609) (human) (UniProt Q14145). Nature of the assay: ITC.
Assay [2] concerns the target Keap1 (Kelch domain) Kelch domain, 321-609 (UniProt Q14145). Nature of the assay: isothermal titration calorimetry. Particulars: reference: unphosphorylated WTX 20-mer peptide; sites S286. On the technique in general: ITC needs no label: the signal is the heat of the interaction.

The source of these data is publication PMC3725505.

Kelch domain of human Keap1 (residues 321-609) (human), sequence (Q14145 321-609): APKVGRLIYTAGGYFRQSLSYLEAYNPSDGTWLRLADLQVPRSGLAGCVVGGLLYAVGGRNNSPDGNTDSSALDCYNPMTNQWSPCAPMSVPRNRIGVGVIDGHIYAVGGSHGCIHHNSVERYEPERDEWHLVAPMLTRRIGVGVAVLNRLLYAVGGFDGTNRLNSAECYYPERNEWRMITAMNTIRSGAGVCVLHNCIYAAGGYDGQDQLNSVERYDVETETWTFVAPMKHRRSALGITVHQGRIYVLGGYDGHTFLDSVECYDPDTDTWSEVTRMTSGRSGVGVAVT

The term Kd denotes a measure of binding affinity in units of concentration. In the case of FAC1 peptide (20-mer), in assay [1], the equilibrium dissociation constant (Kd) came to 1100 nM and the dH is -15.1 kcal/mol.
The stoichiometry N is a count of units in the complex or per binding partner. In assay [1], PALB2 peptide (20-mer) returned a dH of -19.3 kcal/mol and a stoichiometry N of 1.01.
In assay [1], PGAM5 peptide (20-mer) returned a dissociation constant (Kd) of 230 nM, a dH of -19.1 kcal/mol and a stoichiometry N of 1.07.
On to “WTX Kelch-binding region (from UniProt Q5JTC6) WTX pS286 20-mer peptide”, for which the KD result in assay [2] was “weaker; reference 0.25 ± 0.02”.
For WTX peptide (20-mer, unphosphorylated), in assay [1], the Kd was found to be 250 nM, the dH was -18 kcal/mol and the stoichiometry N stood at 1.04.
